From patent US20060286609A1 (BIOCHECK, published 2006) come the findings set out here.

Where a chain is given by its changes, count along the chain named.

Assay [1] deals with T1, Mouse Id4: Histidine (mouse, UniProt P41139 1-161, limits assumed).
T1 construct: E. coli fusion protein (vector pGW07); also called m-Id4: His; not shown: His-tag
T1 sequence (looked up): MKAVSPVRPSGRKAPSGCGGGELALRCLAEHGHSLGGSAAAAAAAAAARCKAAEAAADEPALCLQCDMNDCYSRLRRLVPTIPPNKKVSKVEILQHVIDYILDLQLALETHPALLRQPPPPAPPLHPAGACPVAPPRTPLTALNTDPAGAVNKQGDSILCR
Put plainly: ELISA, coated antigen, Ab 0.100 ug/ml. (In general: In an ELISA, binding on a coated surface is turned into a signal by an enzyme label.)

The target in assay [2] is T2, Human Id4: Histidine (human, UniProt P47928 1-161, limits assumed).
T2 construct: E. coli fusion protein (vector pGW07); also called h-Id4: His; not shown: His-tag
T2 sequence (looked up): T1 sequence (looked up) with L125H, A130T, V133A
Briefly: ELISA, coated antigen, Ab 0.100 ug/ml.

In assay [3] the target is T3, Mouse Id1: Histidine (mouse, UniProt P20067-2 1-148).
T3 construct: E. coli fusion protein (vector pGW07); also called m-Id1-His; not shown: His-tag
T3 sequence: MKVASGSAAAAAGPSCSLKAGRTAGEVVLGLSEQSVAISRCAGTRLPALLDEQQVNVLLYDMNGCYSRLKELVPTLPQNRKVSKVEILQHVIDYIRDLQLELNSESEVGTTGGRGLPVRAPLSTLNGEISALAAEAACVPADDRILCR
Put plainly: ELISA, coated antigen, Ab 0.100 ug/ml.

For assay [4], the target named is T4, Mouse Id2: Histidine (mouse, UniProt P41136 1-134, limits assumed).
T4 construct: E. coli fusion protein (vector pGW07); also called m-Id2: His; not shown: His-tag
T4 sequence (looked up): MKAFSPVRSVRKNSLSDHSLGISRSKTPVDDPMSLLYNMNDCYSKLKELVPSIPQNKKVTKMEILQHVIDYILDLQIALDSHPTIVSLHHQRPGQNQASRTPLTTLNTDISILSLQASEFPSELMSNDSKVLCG
Briefly: ELISA, coated antigen, Ab 0.100 ug/ml.

For assay [5], the target named is T5, Human Id2: Histidine (human, UniProt Q02363 1-134, limits assumed).
T5 construct: E. coli fusion protein (vector pGW07); also called h-Id2: His; not shown: His-tag
T5 sequence (looked up): T4 sequence (looked up) with T60S, V131A
Put plainly: ELISA, coated antigen, Ab 0.100 ug/ml.

For assay [6], the target named is T6, Mouse Id3: Histidine (mouse, UniProt P41133 1-119, limits assumed).
T6 construct: E. coli fusion protein (vector pGW07); also called m-Id3: His; not shown: His-tag
T6 sequence (looked up): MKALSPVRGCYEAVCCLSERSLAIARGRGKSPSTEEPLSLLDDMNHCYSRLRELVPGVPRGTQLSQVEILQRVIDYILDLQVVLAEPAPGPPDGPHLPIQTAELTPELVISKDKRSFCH
Briefly: ELISA, coated antigen, Ab 0.100 ug/ml.

In assay [7] the target is T7, Human Id3: Histidine (human, UniProt Q02535 1-119, limits assumed).
T7 construct: E. coli fusion protein (vector pGW07); also called h-Id3: His; not shown: His-tag
T7 sequence (looked up): T6 sequence (looked up) with S31G, S33A, T34A, K112N
Briefly: ELISA, coated antigen, Ab 0.100 ug/ml.

Assay [8] has as its target T1, Mouse Id4: Histidine. Put plainly: ELISA, coated antigen, Ab 0.500 ug/ml.
In assay [9] the target is T2, Human Id4: Histidine. Put plainly: ELISA, coated antigen, Ab 0.500 ug/ml.
Assay [10] concerns the target T4, Mouse Id2: Histidine. Put plainly: ELISA, coated antigen, Ab 0.500 ug/ml.
The target of assay [11] is T5, Human Id2: Histidine. Put plainly: ELISA, coated antigen, Ab 0.500 ug/ml.
Assay [12] has as its target T7, Human Id3: Histidine. Put plainly: ELISA, coated antigen, Ab 0.500 ug/ml.
The target in assay [13] is T3, Mouse Id1: Histidine. Briefly: ELISA, coated antigen, Ab 0.005 ug/ml.
Assay [14] concerns the target T4, Mouse Id2: Histidine. Put plainly: ELISA, coated antigen, Ab 0.005 ug/ml.
The target of assay [15] is T6, Mouse Id3: Histidine. Briefly: ELISA, coated antigen, Ab 0.005 ug/ml.
For assay [16], the target named is T7, Human Id3: Histidine. Put plainly: ELISA, coated antigen, Ab 0.005 ug/ml.
The target in assay [17] is T1, Mouse Id4: Histidine. Briefly: ELISA, coated antigen, Ab 0.010 ug/ml.
The target of assay [18] is T2, Human Id4: Histidine. Put plainly: ELISA, coated antigen, Ab 0.010 ug/ml.
In assay [19] the target is T3, Mouse Id1: Histidine. Put plainly: ELISA, coated antigen, Ab 0.010 ug/ml.
Assay [20] has as its target T4, Mouse Id2: Histidine. Briefly: ELISA, coated antigen, Ab 0.010 ug/ml.
Assay [21] has as its target T5, Human Id2: Histidine. Put plainly: ELISA, coated antigen, Ab 0.010 ug/ml.
For assay [22], the target named is T6, Mouse Id3: Histidine. Put plainly: ELISA, coated antigen, Ab 0.010 ug/ml.
Assay [23] deals with T7, Human Id3: Histidine. Put plainly: ELISA, coated antigen, Ab 0.010 ug/ml.

With “rabbit monoclonal anti-human Id1, clone #BCH-2/#5-3 (antibody)”, the A450 was determined as 0.049 A450 in assay [1]; 0.047 A450 in [2]; 0.068 A450 in assay [3]; 0.049 A450 in [4]; 0.054 A450 in assay [5]; 0.05 A450 in assay [6]. Also, the A450 is 0.046 A450 in [7]; 0.05 A450 in assay [8]; 0.056 A450 in assay [9]; 0.049 A450 in [10]; 0.062 A450 in assay [11]; 0.052 A450 in assay [12]. Also, the A450 in assay [13] stood at 0.063 A450; in [14], 0.048 A450; in assay [15], 0.047 A450; in assay [16], 0.048 A450; in assay [17], 0.043 A450; in assay [18] it was 0.045 A450. Moreover, the A450 in assay [19] was 0.068 A450; in [20], 0.049 A450; in assay [21], 0.046 A450; in assay [22], 0.048 A450; in assay [23], 0.044 A450.

On to “rabbit monoclonal anti-mouse/human Id1, clone #BCH-1/#195-14 (antibody)”, for which the A450 in assay [1] was determined as 0.049 A450; in [2] it was 0.049 A450; in [3], 2.04 A450; in assay [4] it was 0.054 A450; in [5], 0.053 A450; in assay [6], 0.05 A450. Besides, the A450 in [7] came out at 0.047 A450; in [8], 0.049 A450; in assay [9], 0.048 A450; in assay [10], 0.057 A450; in assay [11], 0.072 A450; in [12], 0.053 A450. Further, the A450 in assay [13] was found to be 0.249 A450; in [14], 0.052 A450; in assay [15], 0.048 A450; in assay [16], 0.047 A450; in [17], 0.045 A450; in [18], 0.046 A450. The A450 in assay [19] is 0.424 A450; in [20], 0.048 A450; in assay [21], 0.054 A450; in assay [22], 0.047 A450; in assay [23] it was 0.048 A450.
